The source of these data is article PMC4705477, “Biochemical Characterization of Nonamer Binding Domain of RAG1 Reveals its Thymine Preference with Respect to Length and Position”.

The target in data set [1] is T1, NBD (nonamer binding domain of RAG1) (mouse, UniProt P15919 384-461).
T1 sequence: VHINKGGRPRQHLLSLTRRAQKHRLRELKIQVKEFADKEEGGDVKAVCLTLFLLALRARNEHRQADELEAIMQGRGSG
Briefly: EMSA; 5 mM Ca2+; printed as 'binding constant'; NBD EMSA: 10 mM Tris-HCl pH 7.5, 33 mM KCl, 5 mM CaCl2, 2 mM DTT, 0.1 mg/ml BSA, 6% glycerol, 15 min 30 C; cRAG EMSA: 22.5 mM MOPS-KOH pH 7.0, 20% DMSO, 2.2 mM. The following applies: protein: recombinant; tags: N-terminal His6 (pET28a); label: 5' 32P on AKN3; 5' overhang 1 nt at both ends. (In general: A gel shift assay detects complexes by their altered migration in electrophoresis.)

The target of data set [2] is T1, NBD (nonamer binding domain of RAG1). Description: BLI; 1x PBS, 30 C, 1:1 fit; NBD EMSA: 10 mM Tris-HCl pH 7.5, 33 mM KCl, 5 mM CaCl2, 2 mM DTT, 0.1 mg/ml BSA, 6% glycerol, 15 min 30 C; cRAG EMSA: 22.5 mM MOPS-KOH pH 7.0, 20% DMSO, 2.2 mM. The settings on record: protein: recombinant; tags: N-terminal His6 (pET28a); label: 5' biotin.
The target in data set [3] is T2, MBP-cRAG1 (core RAG1);cRAG2 (core RAG2) (mouse?;mouse?, UniProt P15919;P21784 384-1040;1-383, |).
T2 sequence 1: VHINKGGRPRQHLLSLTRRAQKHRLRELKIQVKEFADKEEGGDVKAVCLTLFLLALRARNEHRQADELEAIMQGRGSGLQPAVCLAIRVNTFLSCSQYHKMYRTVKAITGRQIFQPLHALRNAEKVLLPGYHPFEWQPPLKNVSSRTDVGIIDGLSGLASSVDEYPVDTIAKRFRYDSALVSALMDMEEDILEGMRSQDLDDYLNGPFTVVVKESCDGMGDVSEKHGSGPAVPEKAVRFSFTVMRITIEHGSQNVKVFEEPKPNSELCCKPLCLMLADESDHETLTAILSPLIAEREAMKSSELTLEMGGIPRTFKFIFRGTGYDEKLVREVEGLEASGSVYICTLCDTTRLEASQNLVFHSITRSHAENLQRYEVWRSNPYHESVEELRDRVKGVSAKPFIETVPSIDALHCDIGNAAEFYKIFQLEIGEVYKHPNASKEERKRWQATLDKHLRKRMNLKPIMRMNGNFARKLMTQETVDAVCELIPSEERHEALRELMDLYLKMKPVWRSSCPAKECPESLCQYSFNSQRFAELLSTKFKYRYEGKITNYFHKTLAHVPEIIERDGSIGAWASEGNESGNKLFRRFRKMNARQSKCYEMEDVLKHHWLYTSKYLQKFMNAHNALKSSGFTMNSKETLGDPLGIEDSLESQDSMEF
T2 sequence 2: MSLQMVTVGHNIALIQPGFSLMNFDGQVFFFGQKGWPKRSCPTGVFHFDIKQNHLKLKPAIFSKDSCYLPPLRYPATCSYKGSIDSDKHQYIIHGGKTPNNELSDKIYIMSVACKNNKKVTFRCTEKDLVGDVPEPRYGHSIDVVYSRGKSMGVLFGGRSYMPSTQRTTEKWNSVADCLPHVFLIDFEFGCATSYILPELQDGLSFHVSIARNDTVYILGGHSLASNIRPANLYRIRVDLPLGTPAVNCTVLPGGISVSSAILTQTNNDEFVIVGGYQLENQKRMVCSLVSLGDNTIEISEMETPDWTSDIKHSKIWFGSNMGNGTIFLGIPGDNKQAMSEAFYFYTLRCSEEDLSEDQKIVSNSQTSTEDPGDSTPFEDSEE
Description: EMSA; cRAG buffer; NBD EMSA: 10 mM Tris-HCl pH 7.5, 33 mM KCl, 5 mM CaCl2, 2 mM DTT, 0.1 mg/ml BSA, 6% glycerol, 15 min 30 C; cRAG EMSA: 22.5 mM MOPS-KOH pH 7.0, 20% DMSO, 2.2 mM. The following applies: protein: recombinant;recombinant, tags: MBP;MBP, chain copies: 2;2.

Data set [4] has as its target T1, NBD (nonamer binding domain of RAG1). Briefly: EMSA; 5 mM Ca2+; NBD EMSA: 10 mM Tris-HCl pH 7.5, 33 mM KCl, 5 mM CaCl2, 2 mM DTT, 0.1 mg/ml BSA, 6% glycerol, 15 min 30 C; cRAG EMSA: 22.5 mM MOPS-KOH pH 7.0, 20% DMSO, 2.2 mM. The following applies: protein: recombinant, tags: N-terminal His6 (pET28a).
The target is the same in data set [5]. Description: EMSA; 5 mM Ca2+; no significant binding; NBD EMSA: 10 mM Tris-HCl pH 7.5, 33 mM KCl, 5 mM CaCl2, 2 mM DTT, 0.1 mg/ml BSA, 6% glycerol, 15 min 30 C; cRAG EMSA: 22.5 mM MOPS-KOH pH 7.0, 20% DMSO, 2.2 mM. The settings on record: protein: recombinant; tags: N-terminal His6 (pET28a); label: 5' 32P on DR59; 6 nt T/T bubble, blunt ends.
Setting [6] is: label: 5' 32P, 6 nt T/T bubble, blunt ends.
Setting [7] is: label: 5' 32P on AKN1, 5' overhang 1 nt at both ends.
Where [8] appears, read: label: 5' 32P, 6 nt A/A bubble, blunt ends.
[9] abbreviates: label: 5' 32P, 6 nt C/C bubble, blunt ends.
Setting [10] is: label: 5' 32P, 6 nt G/G bubble, blunt ends, intermolecular G4 in K+ buffer.
Setting [11] is: label: 5' 32P on NM32, 6 nt T/T bubble, blunt ends.

B1: 23RSS (II, AKN3/AKN4) (dsDNA)
DNA 1: GATCAGCTGACAGTAGCACAGTGGTAGTACTCCACTCTCTGGCTGTACAAAAACCCTGCT
DNA 2: TAGCAGGGTTTTTGTACAGCCAGAGAGTGGAGTACTACCACTGTGCTACTGTCAGCTGAT
In general, Kd refers to the equilibrium constant for the complex coming apart. Take B1: the Kd in data set [1] came to 13.9 ± 3.3 µM. Turning to TTTTTTTTTTTTTTTTTTTTTTTTTTTTTTTTTTT (ssDNA) [biotinylated poly T 35], the Kd in data set [2] is 0.45 µM. Consider TTTTTTTTTTTTTTTTTTTTTTTTTTTTTTTTTTT (ssDNA) [ss poly T 35 (MS3)], for which, in data set [3] (label: 5' 32P), the binding result was “no binding”.

B2: T/T bubble heteroduplex (AKN11/SCR252) (dsDNA)
DNA 1: GACCTGAGGGCGAGCTTTTTTCGAGTAACTTAACAG
DNA 2: CTGTTAAGTTACTCGTTTTTTGCTCGCCCTCAGGTC
Turning to B2, the binding result in data set [4] (setting [6]) is reported as “no binding”; in data set [3] (setting [6]), “binds”.

B3: T/T bubble with scrambled nonamer (XXXVII, DR59/DR60) (dsDNA)
DNA 1: GACCTGAGGGCGAGCTTTTTTCGAGTAACTTAAGCGGAGGTCCTGCT
DNA 2: AGCAGGACCTCCGCTTAAGTTACTCGTTTTTTGCTCGCCCTCAGGTC
As for B3, the binding result in data set [5] is “no binding”.

B4: 12RSS (I, AKN1/AKN2) (dsDNA)
DNA 1: GATCAGCTGATAGCTACCACAGTGCTACAGACTGGAACAAAAACCCTGCT
DNA 2: TAGCAGGGTTTTTGTTCCAGTCTGTAGCACTGTGGTAGCTATCAGCTGAT
For the molecule B4, the binding result in data set [4] (setting [7]) and in data set [3] (setting [7]) was “binds” each time.

B5: A/A bubble heteroduplex (AKN18/AKN45) (dsDNA)
DNA 1: CTGTTAAGTTACTCGAAAAAAGCTCGCCCTCAGGTC
DNA 2: GACCTGAGGGCGAGCAAAAAACGAGTAACTTAACAG
Take B5: the binding result in data set [4] (setting [8]) and in data set [3] (setting [8]) was “no binding” throughout.

B6: C/C bubble heteroduplex (AKN46/AKN20) (dsDNA)
DNA 1: GACCTGAGGGCGAGCCCCCCCCGAGTAACTTAACAG
DNA 2: CTGTTAAGTTACTCGCCCCCCGCTCGCCCTCAGGTC
Regarding B6, the binding result in data set [4] (setting [9]) was “no binding”; in data set [3] (setting [9]) it was “binds”.

B7: G/G bubble heteroduplex (V, AKN47/AKN48) (dsDNA)
DNA 1: GACCTGAGGGCGAGCGGGGGGCGAGTAACTTAACAG
DNA 2: CTGTTAAGTTACTCGGGGGGGGCTCGCCCTCAGGTC
As for B7, the binding result in data set [4] (setting [10]) and in data set [3] (setting [10]) was “no binding” each time.

B8: T/T bubble with nonamer (VII, NM32/NM33) (dsDNA)
DNA 1: GACCTGAGGGCGAGCTTTTTTCGAGTAACTTAAACAAAAACCCTGCT
DNA 2: AGCAGGGTTTTTGTTTAAGTTACTCGTTTTTTGCTCGCCCTCAGGTC
Take B8: the binding result in data set [4] (setting [11]) and in data set [3] (setting [11]) was “binds” throughout.
